Values quoted from earlier work as cited in publication PMC12489035.

Target: APP tail cytoplasmic tail (Homo sapiens) (UniProt P05067)
Sequence (P05067 724-770): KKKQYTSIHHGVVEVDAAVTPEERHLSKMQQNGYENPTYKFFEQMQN

AP-4 mu4 subunit, sequence (O00189 whole entry): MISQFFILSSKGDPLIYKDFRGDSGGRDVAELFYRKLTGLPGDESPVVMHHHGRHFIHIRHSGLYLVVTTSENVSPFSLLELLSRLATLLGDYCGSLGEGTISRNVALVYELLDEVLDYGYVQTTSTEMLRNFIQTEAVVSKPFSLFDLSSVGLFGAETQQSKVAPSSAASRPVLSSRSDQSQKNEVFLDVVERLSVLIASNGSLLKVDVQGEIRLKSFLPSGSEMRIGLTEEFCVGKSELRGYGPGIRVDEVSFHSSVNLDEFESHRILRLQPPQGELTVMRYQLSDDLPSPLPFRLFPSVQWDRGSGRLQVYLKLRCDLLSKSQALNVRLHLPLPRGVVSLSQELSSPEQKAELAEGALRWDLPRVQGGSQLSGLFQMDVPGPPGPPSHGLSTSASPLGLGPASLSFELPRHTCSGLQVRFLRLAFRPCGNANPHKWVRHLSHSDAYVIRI

Kd: 27.7 µM
Substance: AP-4 mu4 subunit (from UniProt O00189)
